Assay results from US20120308564A1 (published 2012).

Assays:
[1] = target: T1, human IL-18 (human, UniProt Q14116 37-193); assay: method not given; the same paragraph names BIAcore and FORTEbio as possible methods and mentions 25 C
T1 construct: also called Interleukin-18
T1 sequence (looked up): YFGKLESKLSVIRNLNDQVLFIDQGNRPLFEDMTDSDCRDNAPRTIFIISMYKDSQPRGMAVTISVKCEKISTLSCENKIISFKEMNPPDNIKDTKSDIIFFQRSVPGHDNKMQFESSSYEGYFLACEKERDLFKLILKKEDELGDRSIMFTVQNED

[2] = target: T1, human IL-18; assay: cell-based or functional assay

B1: H1L2 (SEQ ID NO:7 and SEQ ID NO:11) (antibody, human IgG1, kappa, V domains shown)
VH: QVQLVQSGAEVKKPGASVKVSCKVSGEISTGYYFHWVRQAPGKGLEWMGRIDPEDDSTKYAERFKDRVTMTEDTSTDTAYMELSSLRSEDTAVYYCTTWRIYRDSSGRPFYVMDAWGQGTLVTVSS
VL: DIQMTQSPSSVSASVGDRVTITCLASEDIYTYLTWYQQKPGKAPKLLIYGANKLQDGVPSRFSGSGSGTDYTLTISSLQPEDFATYYCLQGSKFPLTFGQGTKLEIKR
notes: also called anti-IL-18 antibody H1L2
Kd [1]: 0.0303 nM
IL-6 gene expression in IL-18 stimulated ex-vivo human whole blood (Affymetrix microarray), IL-18 50 ng/ml + H1L2 1 ug/ml vs IL-18 alone [2]: 7 fold decrease
IRS2 gene expression in IL-18 stimulated ex-vivo human whole blood (microarray), IL18+H1L2 vs IL18 alone [2]: 1.4 fold increase
JAK2 gene expression in IL-18 stimulated ex-vivo human whole blood (microarray), IL18+H1L2 vs IL-18 alone [2]: 2.1 fold decrease
MCP-1 gene expression in IL-18 stimulated ex-vivo human whole blood (microarray), IL18+H1L2 vs IL18 alone [2]: 2.6 fold decrease
MCP-4 gene expression in IL-18 stimulated ex-vivo human whole blood (microarray), IL18+H1L2 vs IL18 alone [2]: 2.5 fold decrease
PPAR gamma gene expression in IL-18 stimulated ex-vivo human whole blood (microarray), IL18+H1L2 vs IL18 alone [2]: 1.7 fold increase
SOCS3 gene expression in IL-18 stimulated ex-vivo human whole blood (microarray), IL18+H1L2 vs IL-18 alone [2]: 1.9 fold decrease
STAT3 gene expression in IL-18 stimulated ex-vivo human whole blood (microarray), IL18+H1L2 vs IL-18 alone [2]: 1.6 fold decrease
